Experimental findings from PMC10072072 (mAbs, 2023) are described below.

The target of assay [1] is Cyno CD3εδ heterodimer, Fc fusion (Macaca fascicularis, UniProt Q95LI5;Q95LI8). The experiment in a line: BLI. For orientation: BLI is a label-free optical method that tracks binding on a fibre tip over time.
Assay [2] has as its target Human CD3 epsilon-delta (εδ) heterodimer, Fc fusion (Homo sapiens, UniProt P07766;P04234). Briefly: BLI.
In assay [3] the target is CD3 on the surface of cyno HSC-F T cells (Macaca fascicularis (HSC-F), UniProt Q95LI5;Q95LI8). Briefly: flow cytometry on cells.
In assay [4] the target is CD3 on the surface of human Jurkat T cells (Homo sapiens (Jurkat), UniProt P07766;P04234). Briefly: flow cytometry on cells. A general note: In flow cytometry, cells or beads pass a laser one at a time.

Positions count from the first letter of the chain named. Names may count otherwise.

Sequence of CD3 on the surface of cyno HSC-F T cells (Q95LI5 22-198, one chain of several): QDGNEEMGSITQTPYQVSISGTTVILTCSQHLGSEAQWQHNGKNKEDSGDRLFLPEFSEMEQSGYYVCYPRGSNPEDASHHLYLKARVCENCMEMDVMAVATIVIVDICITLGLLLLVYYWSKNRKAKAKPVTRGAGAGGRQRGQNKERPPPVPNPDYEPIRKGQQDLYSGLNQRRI
Sequence of Cyno CD3εδ heterodimer, Fc fusion (Q95LI5 22-117, stated change not applied, chain 1 of 2): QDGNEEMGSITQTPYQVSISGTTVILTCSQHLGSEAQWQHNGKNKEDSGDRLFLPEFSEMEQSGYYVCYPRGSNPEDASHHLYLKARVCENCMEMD
Sequence of Cyno CD3εδ heterodimer, Fc fusion (Q95LI8 22-100, stated change not applied, chain 2 of 2): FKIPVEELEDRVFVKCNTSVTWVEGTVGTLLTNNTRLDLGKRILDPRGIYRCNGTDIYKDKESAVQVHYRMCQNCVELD
Sequence of CD3 on the surface of human Jurkat T cells (P07766 23-207, one chain of several): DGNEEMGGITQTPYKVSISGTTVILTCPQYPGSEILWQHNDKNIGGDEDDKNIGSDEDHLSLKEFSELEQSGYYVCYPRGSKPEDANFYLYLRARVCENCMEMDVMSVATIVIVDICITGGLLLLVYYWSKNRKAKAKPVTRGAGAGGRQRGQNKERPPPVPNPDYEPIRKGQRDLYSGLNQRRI
Sequence of Human CD3 epsilon-delta (εδ) heterodimer, Fc fusion (P07766 23-126, stated change not applied, chain 1 of 2): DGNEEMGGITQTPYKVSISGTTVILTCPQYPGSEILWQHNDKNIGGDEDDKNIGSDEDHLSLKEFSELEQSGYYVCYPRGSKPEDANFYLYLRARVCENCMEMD
Sequence of Human CD3 epsilon-delta (εδ) heterodimer, Fc fusion (P04234 22-100, stated change not applied, chain 2 of 2): as the sequence (Q95LI8 22-100, stated change not applied, chain 2 of 2) above, with V5I, K15N, V20I, T32S, N33D, N34I, A64T, N74S counted along it

B1: ADI-26906 IgG1 variant L3-R94E (antibody, V domains shown)
VH: QVQLVQSGAEVKKPGASVKVSCKASGFNIKDYYMHWVRQAPGQRLEWMGWIDLENANTIYDAKFQGRVTITRDTSASTAYMELSSLRSEDTAVYYCARDAYGRYFYDVWGQGTLVTVSS
VL: DIVMTQSPDSLAVSLGERATINCKSSQSLLNARTGKNYLAWYQQKPGQPPKLLIYWASTRESGVPDRFSGSGSGTDFTLTISSLQAEDVAVYYCKQSYSERTFGGGTKVEIK
For B1, the binding result in assay [1], in assay [2], in assay [3] and in assay [4] was “binds” each time.

B2: ADI-26906 Fab (from CHO-produced IgG, papain digest) (Fab, V domains shown)
VH: B1 VH
VL: B1 VL with E100R
As for B2, in assay [3], the binding result is “binds”.

B3: ADI-26906 IgG1 (antibody, V domains shown)
VH: B1 VH
VL: B1 VL with E100R
Consider B3, for which the binding result in assay [1] and in assay [3] was “binds” each time.
